Results as given in patent US20090087437A1 (Dana-Farber, published 2009).

Key:
Assay in all cases: co-immunoprecipitation from cell lysates, western blot
XIAP = XIAP (UniProt P98170 1-497)
cIAP1 = cIAP1 (UniProt Q13490 1-618)
cIAP2 = target: T1, cIAP2 (UniProt Q13489 1-604)
T1 construct: The list of antibodies in the same sentence prints 'cIAP', while the result names 'cIAP2'

Bcl-2 = target: T2, Bcl-2 (UniProt P10415 1-239)
T2 construct: also called multidomain antiapoptotic Bcl-2 protein

Bcl-xL = target: T3, Bcl-xL (UniProt Q07817 1-233)
T3 construct: also called multidomain antiapoptotic Bcl-xL protein

Measured: binding result

T1 sequence (Q13489 whole entry): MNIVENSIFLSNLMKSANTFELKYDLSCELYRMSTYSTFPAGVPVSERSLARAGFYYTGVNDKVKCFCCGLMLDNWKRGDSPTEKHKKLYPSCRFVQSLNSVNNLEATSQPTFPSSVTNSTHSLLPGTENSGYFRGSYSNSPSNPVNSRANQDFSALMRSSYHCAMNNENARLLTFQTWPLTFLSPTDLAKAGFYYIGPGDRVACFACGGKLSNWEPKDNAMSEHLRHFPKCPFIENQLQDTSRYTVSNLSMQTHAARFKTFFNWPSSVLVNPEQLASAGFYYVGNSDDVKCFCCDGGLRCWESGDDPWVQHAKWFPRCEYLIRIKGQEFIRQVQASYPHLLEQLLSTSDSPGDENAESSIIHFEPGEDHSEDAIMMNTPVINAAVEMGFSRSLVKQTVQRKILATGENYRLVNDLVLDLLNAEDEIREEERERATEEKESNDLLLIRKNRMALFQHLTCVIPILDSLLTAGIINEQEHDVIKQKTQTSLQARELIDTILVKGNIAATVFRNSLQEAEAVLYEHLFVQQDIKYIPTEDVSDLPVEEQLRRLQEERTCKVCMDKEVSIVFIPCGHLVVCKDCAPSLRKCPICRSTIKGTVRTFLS
T2 sequence (P10415 whole entry): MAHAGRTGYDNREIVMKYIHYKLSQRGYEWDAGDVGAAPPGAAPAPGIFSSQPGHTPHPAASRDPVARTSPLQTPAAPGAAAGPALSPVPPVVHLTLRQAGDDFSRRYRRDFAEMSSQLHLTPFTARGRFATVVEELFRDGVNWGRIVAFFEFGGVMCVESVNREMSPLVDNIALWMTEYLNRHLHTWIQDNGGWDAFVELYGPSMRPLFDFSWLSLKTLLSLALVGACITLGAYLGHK
Chain of cIAP1 (Q13490 whole entry): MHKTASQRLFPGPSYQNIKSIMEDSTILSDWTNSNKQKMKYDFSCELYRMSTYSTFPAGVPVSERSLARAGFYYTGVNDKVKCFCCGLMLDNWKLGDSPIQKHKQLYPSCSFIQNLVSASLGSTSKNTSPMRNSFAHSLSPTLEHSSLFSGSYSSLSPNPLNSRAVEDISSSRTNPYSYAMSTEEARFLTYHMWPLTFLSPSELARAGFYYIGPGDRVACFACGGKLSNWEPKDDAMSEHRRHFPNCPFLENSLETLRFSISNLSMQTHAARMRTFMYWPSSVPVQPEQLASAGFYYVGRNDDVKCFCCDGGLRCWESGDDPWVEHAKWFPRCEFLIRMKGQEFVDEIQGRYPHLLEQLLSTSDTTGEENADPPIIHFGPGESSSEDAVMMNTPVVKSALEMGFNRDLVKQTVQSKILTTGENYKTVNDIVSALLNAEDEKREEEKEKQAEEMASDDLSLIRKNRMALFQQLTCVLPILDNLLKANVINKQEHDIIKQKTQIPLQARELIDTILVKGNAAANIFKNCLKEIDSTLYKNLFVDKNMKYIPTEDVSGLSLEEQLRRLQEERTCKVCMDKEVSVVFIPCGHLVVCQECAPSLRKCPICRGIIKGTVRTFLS
T3 sequence (Q07817 whole entry): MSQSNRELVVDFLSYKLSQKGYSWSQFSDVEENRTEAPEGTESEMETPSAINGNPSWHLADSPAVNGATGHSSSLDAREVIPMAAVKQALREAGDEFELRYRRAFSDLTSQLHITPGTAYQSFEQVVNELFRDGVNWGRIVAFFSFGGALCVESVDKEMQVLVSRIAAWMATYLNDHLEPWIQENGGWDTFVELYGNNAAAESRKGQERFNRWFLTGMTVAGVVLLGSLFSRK
Chain of XIAP (P98170 whole entry): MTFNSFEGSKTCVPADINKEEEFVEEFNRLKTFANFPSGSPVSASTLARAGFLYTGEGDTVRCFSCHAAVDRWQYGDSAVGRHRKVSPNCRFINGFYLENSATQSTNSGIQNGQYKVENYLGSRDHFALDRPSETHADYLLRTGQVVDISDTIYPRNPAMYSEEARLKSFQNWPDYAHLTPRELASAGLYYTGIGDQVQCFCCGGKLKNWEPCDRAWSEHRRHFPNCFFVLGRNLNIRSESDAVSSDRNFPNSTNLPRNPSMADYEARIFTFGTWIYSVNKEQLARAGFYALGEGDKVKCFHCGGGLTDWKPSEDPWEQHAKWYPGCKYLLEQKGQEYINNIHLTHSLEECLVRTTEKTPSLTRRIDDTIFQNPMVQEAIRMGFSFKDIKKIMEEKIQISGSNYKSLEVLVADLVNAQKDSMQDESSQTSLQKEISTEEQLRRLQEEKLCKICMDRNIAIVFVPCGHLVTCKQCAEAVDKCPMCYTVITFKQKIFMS

B1: MUC1 C-terminal transmembrane subunit (MUC1-C) (other, UniProt P15941 1098-1255, looked up)
chain: SVVVQLTLAFREGTINVHDVETQFNQYKTEAASRYNLTISDVSVSDVPFPFSAQSGAGVPGWGIALLVLVCVLVALAIVYLIALAVCQCRRKNYGQLDIFPARDTYHPMSEYPTYHTHGRYVPPSSTDRSPYEKVSAGNGGSSLSYTNPAVAATSANL
notes: Endogenous protein immunoprecipitated from MCF7 lysates with an anti-MUC1-C antibody
no binding: all assays above
